Measurements: PMC4468861

Target: N-terminally GST-tagged M. jannaschii SR(aa93-408) (M. jannaschii) (UniProt Q57739)
Chain of UniProt Q57739 (Q57739 93-408): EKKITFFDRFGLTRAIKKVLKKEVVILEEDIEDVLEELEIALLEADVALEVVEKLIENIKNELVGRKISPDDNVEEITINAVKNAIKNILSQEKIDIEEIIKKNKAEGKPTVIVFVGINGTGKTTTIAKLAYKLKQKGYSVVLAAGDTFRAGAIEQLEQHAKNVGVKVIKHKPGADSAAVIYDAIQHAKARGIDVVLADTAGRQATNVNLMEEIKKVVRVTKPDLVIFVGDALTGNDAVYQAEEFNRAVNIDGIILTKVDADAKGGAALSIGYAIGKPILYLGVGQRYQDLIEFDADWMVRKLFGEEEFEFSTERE

GTPase rate of the SRP-SR complex in multiple turnover reactions (0.5 uM SRP, SR 0-25 uM, 25 °C), against SRP complexes containing SRP54-ss as the text prints (fl-SRP54 by the legend of Fig. 1b): 20 fold
Substance: M. jannaschii SRP core complex containing fl-SRP54-ss, SRP19 and SRP RNA (from UniProt Q57565 1-451; Q58440 1-87)
